The chains are these.
B1: Azoarcus group I ribozyme (parent)
chain: GUGCCUUGCGCCGGGAAACCACGCAAGGGAUGGUGUCAAAUUCGGCGAAACCUAAGCGCCCGCCCGGGCGUAUGGCAACGCCGAGCCAAGCUUCGGCGCCUGCGCCGAUGAAGGUGUAGAGACUAGACGGCACCCACCUAAGGCAAACGCUAUGGUGAAGGCAUAGUCCAGGGAGUGGCGAAAGUCACACAAACCGG

Variants of B1 are the subject of the data set. Put plainly: reverse-splicing fitness (ratio to wild type); higher = more active; in vitro selection; Mg2+ level not given. The method, boiled down: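 An in vitro group I ribozyme library with randomized positions was T7-transcribed and gel-purified. In triplicate, 10 pmol RNA in EPPS pH 7.5 was reacted with 50 pmoles of a 30-nt RNA substrate for 1 h at 37 °C across several added MgCl2 levels (1–48 mM), then stopped with EDTA. Products were reverse transcribed from a substrate-complementary primer, PCR-amplified and sequenced (HiSeq 4000). Fitness is a variant's read proportion after selection over that before, normalised to wild type.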
As to C82A A145G C150G C169U U176G, the reverse-splicing fitness turned out to be 0.00762.

C82G A111U A120G A145U U176G: the reverse-splicing fitness was 0.00635.

As to C82U A111U A145U C150G C169G U176C, the reverse-splicing fitness was determined as 0.00578.

C82U A111G A120U A145G C150U U176A: the reverse-splicing fitness is 0.00999.

With C82U A111U A120G U176C, the reverse-splicing fitness is 0.0165.

With C82A A120C A145U C150A C169U U176C, the reverse-splicing fitness amounted to 0.0126.

With C82U A111G A120U A145C C150G C169U U176G, the reverse-splicing fitness was 0.00181.

C82G A120G A145U C150A U176G: the reverse-splicing fitness stood at 0.00553.

Turning to C82G A111G A120C A145U C150U C169A, the reverse-splicing fitness is 0.01.

As to C82G A120C A145C C150U C169U U176C, the reverse-splicing fitness amounted to 0.00971.

Take C82A A111G A120C U176C: the reverse-splicing fitness worked out at 0.032.

Consider C82U A111U A120C A145U C150A C169A U176C, for which the reverse-splicing fitness stood at 0.0094.

On to A111U A145G C150G C169U U176C, for which the reverse-splicing fitness worked out at 0.0136.

Turning to A120U A145U U176A, the reverse-splicing fitness was found to be 0.681.

For A111G A120C A145C C150G C169A U176C, the reverse-splicing fitness was found to be 0.00524.

For the variant C82G A120U A145G C150U C169U U176G, the reverse-splicing fitness was found to be 0.00216.

For C82G A120C A145U C150U C169U U176C, the reverse-splicing fitness is 0.0148.

Consider C82A A111G A120U A145C C150G C169G U176G, for which the reverse-splicing fitness was determined as 0.00217.

In the case of C82G A111G A120G A145C C150G C169G U176C, the reverse-splicing fitness came to 0.00887.

In the case of C82U A111G A120C A145U C150U C169A, the reverse-splicing fitness turned out to be 0.00793.

Regarding C82U A111G A120U C150G C169A, the reverse-splicing fitness was determined as 0.00636.

For C82A A111G A145C C150U C169A U176G, the reverse-splicing fitness was found to be 0.00703.

With C82G A111U A145G C150A C169G U176A, the reverse-splicing fitness is 0.0179.

Consider C82G A111U A120C C150A C169A U176G, for which the reverse-splicing fitness stood at 0.00867.

On to A111U A120U A145C C150G U176A, for which the reverse-splicing fitness turned out to be 0.0107.

Consider C82G A111C A120C A145U C169G U176G, for which the reverse-splicing fitness came out at 0.00713.

As to C82G A111C A120C A145U C169G U176A, the reverse-splicing fitness turned out to be 0.0141.

Consider C82U A111G C150U C169U U176A, for which the reverse-splicing fitness amounted to 0.0126.

Consider C82A A111C C169A U176C, for which the reverse-splicing fitness was determined as 0.0237.

Take C82A A111G A120C A145C C150U C169U: the reverse-splicing fitness was 0.0104.

In the case of C82A A120C A145U C150G C169G, the reverse-splicing fitness amounted to 0.00692.

In the case of C82G A111C A120C A145U C169A U176C, the reverse-splicing fitness turned out to be 0.0142.

For the variant A111C A120G A145G C150U C169G U176G, the reverse-splicing fitness was found to be 0.00471.

For C82U A111U A120G C150U C169U, the reverse-splicing fitness came out at 0.00882.

For C82U A111U A120G C150G U176G, the reverse-splicing fitness turned out to be 0.00288.

On to C82G A111U A120C A145G C150U U176G, for which the reverse-splicing fitness is 0.00905.

As for C82G A120U A145U C150G C169U, the reverse-splicing fitness turned out to be 0.00283.

Take C82U A120U C150G C169U: the reverse-splicing fitness worked out at 0.00386.

Consider C82A A120G A145G C169A, for which the reverse-splicing fitness came to 0.0151.

In the case of A111U A120C A145G C150U C169U, the reverse-splicing fitness came to 0.148.

With C82G A111C A120C A145C C169A U176A, the reverse-splicing fitness stood at 0.0175.

As to A145U C169U U176G, the reverse-splicing fitness turned out to be 0.013.

Take C82U A111G A145C C150U C169G U176A: the reverse-splicing fitness was determined as 0.0186.

On to A111U A120U A145C C150U C169U U176C, for which the reverse-splicing fitness was 0.00285.

For the variant A111G A120G C150G C169A U176C, the reverse-splicing fitness amounted to 0.0116.

In the case of A111U A145U C150A C169U U176A, the reverse-splicing fitness was 0.0151.

With C82G A111U A120U C150A C169A U176G, the reverse-splicing fitness was 0.00233.

On to C82G A111U A120U C150A C169A U176A, for which the reverse-splicing fitness is 0.00677.

Consider A111U A120C A145U C150G, for which the reverse-splicing fitness is 0.0712.

With C82U A120C A145U C150A C169A, the reverse-splicing fitness was 0.00683.

As for A111U A120U C169A U176A, the reverse-splicing fitness is 0.00255.

Consider C82G A120G A145C C150G C169U U176A, for which the reverse-splicing fitness was determined as 0.0154.

Take C82U A145C C169U U176C: the reverse-splicing fitness was 0.00956.

For the variant C82U A111C A120G A145C C150G C169U U176C, the reverse-splicing fitness is 0.00897.

Consider C82A A145G C150G C169G U176A, for which the reverse-splicing fitness is 0.0112.

Consider C82G A111U A120U A145U C150U C169A U176G, for which the reverse-splicing fitness is 0.00252.

Take A111C A120U C150A C169U: the reverse-splicing fitness worked out at 0.00953.

C82A A120C A145C C150G U176G: the reverse-splicing fitness was 0.00331.

With C82U A111G A120U A145G C150A U176G, the reverse-splicing fitness was found to be 0.00267.

On to C82A A120G A145U, for which the reverse-splicing fitness came to 0.0219.

On to C82U A111C A145U C150A U176C, for which the reverse-splicing fitness came out at 0.022.

With C82U A111C A120U A145G C150U U176C, the reverse-splicing fitness amounted to 0.0107.

As to C150U C169U U176C, the reverse-splicing fitness was found to be 0.128.

Consider C82G A145U C150G C169A U176A, for which the reverse-splicing fitness was found to be 0.0121.

Take C82A A111U A120C A145U C150U C169U U176A: the reverse-splicing fitness was 0.0157.

With A120G A145U C150G C169U U176G, the reverse-splicing fitness was 0.00602.

As to A145G C150G C169U U176A, the reverse-splicing fitness came out at 0.0192.

As for C82G A111U A120U A145G C150U C169G U176C, the reverse-splicing fitness came out at 0.00575.

As for C82U A120U A145C C150G C169U U176A, the reverse-splicing fitness is 0.00247.

For C82G A111C A120U A145C C150U C169G U176G, the reverse-splicing fitness turned out to be 0.00262.

For C82G A111C C150U C169A U176A, the reverse-splicing fitness is 0.0125.

Consider C82A A111C A120C A145U C150G C169U, for which the reverse-splicing fitness stood at 0.01.

In the case of C82U A111G A120C C150G C169A U176C, the reverse-splicing fitness was found to be 0.0113.

In the case of C82U A111U A145G C150A C169G U176A, the reverse-splicing fitness was determined as 0.0146.

For the variant C82G A111C A120G C169A, the reverse-splicing fitness was found to be 0.0107.

As for C82A A111G A120G A145G C169U U176C, the reverse-splicing fitness came to 0.0173.

As to C82G A111G A120U A145G C150G C169U U176A, the reverse-splicing fitness stood at 0.00708.

In the case of C82G A120U A145U C169A U176A, the reverse-splicing fitness turned out to be 0.00245.

In the case of A111G A120G A145U C150U C169A U176A, the reverse-splicing fitness came to 0.0314.

Consider C82A A120G A145U C150A C169U U176G, for which the reverse-splicing fitness amounted to 0.00431.

With A111U A120U C150U U176C, the reverse-splicing fitness is 0.171.

As for A120U A145C C150U C169A, the reverse-splicing fitness stood at 0.00515.

C82A A111U A120C A145G C150A C169A U176G: the reverse-splicing fitness came out at 0.0115.

Values taken from the RNAGym collection of RNA variant scans (doi:10.1093/molbev/msab373).
